Reference: US20120117691, “TRANSCRIPTION FACTORS FOR MODIFICATION OF LIGNIN CONTENT IN PLANTS” (The Samuel Roberts Noble Foundation, Inc., published 2012)

B1: C3H14 promoter fragment (dsDNA)
DNA 1: TGGAAGATGCATGTTATTGACTAAATATGATCTACCA
DNA 2: TGGTAGATCATATTTAGTCAATAACATGCATCTTCCA
B2: NST2 promoter fragment (dsDNA)
DNA 1: AAAGAGACCATTAGTATATTTGACCCAAAAAAAAATAAAAAAAAAAGAG
DNA 2: CTCTTTTTTTTTTATTTTTTTTTGGGTCAAATATACTAATGGTCTCTTT
B3: C3H14L promoter fragment (dsDNA)
DNA 1: TGGCTTAAATCATATTGACAAGACCCATTAAAAAGAGG
DNA 2: CCTCTTTTTAATGGGTCTTGTCAATATGATTTAAGCCA

What was measured:
AtWRKY12 [1] = molecular target: T1, AtWRKY12 (Arabidopsis thaliana, UniProt Q93WY4 SEQ:1-218); assay: EMSA; 100 ng protein, 20 min; no binding detected; settings: tags: MBP fusion, expressed in E. coli, amylose resin purified; label: 5' biotin on one strand
From the text: (§1) To express the recombinant AtWRKY12 protein, the coding sequence was fused in frame with maltose binding protein (MBP), expressed in E. coli, and the recombinant protein was purified using amylose resin. The pure protein was used for EMSA with the NST2 or C3H promoter fragments. Double-strand probe and competitor fragments were made from annealing of separately synthesized strands, with/without one 5′ biotin labeled strand. The sequence used for NST2 was:
(§2) For C3H the sequence was: 5′-[…]-3′ (SEQ ID NO:42); and for C3HL the sequence was 5′-[…]-3′ (SEQ ID NO:43). The conserved WRKY binding motifs are underlined. The biotin-labeled and competitor DNA fragments were incubated for 20 min with 100 ng of AtWRKY12-MBP in binding buffer according to the EMSA kit protocol (Pierce, Rockford, Ill.), and reaction mixtures were loaded for polyacrylamide gel electrophoresis. The DNA was electroblotted onto nitrocellulose membrane and detected by the chemiluminescent method.

AtWRKY12 [2] = molecular target: T1, AtWRKY12; assay: EMSA; 100 ng protein, 20 min, Pierce EMSA kit buffer; settings: tags: MBP fusion, expressed in E. coli, amylose resin purified; label: 5' biotin on one strand
From the text: as §1, §2

T1 sequence (Q93WY4 whole entry, the tested form may be a part): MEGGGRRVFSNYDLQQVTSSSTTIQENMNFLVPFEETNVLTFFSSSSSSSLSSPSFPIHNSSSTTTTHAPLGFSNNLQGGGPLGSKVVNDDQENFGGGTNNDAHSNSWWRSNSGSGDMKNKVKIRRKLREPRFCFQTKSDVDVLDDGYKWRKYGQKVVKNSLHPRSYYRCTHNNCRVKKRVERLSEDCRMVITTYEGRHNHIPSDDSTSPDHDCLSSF

| Binder | binding result (AtWRKY12 [1]) | binding result (AtWRKY12 [2]) |
| --- | --- | --- |
| B1 | no binding | – |
| B2 | – | binds |
| B3 | no binding | – |
